Measurements from the nanobody polyreactivity screen of Harvey et al. (2022).

Assay: yeast display, Sf9 membrane polyspecificity reagent, FACS + sequencing; frameworks hold sequencing errors
Outline: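 A nanobody's polyreactivity label depends on the gate it was sorted from. Yeast display cells were stained with 10% biotinylated, detergent-solubilized Sf9 membrane reagent for 1 hour at 4 °C, enriched on streptavidin microbeads and sorted by FACS. The low and high (top ~1%) gates were set on anti-HA fluorescence for expression and streptavidin fluorescence for reagent binding.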

| Sequence | polyreactivity (PSR sort gate) |
| --- | --- |
| QVQLVESGGGLVQAGGSLRISCAASGITLYFYAMGWYRQAPGKERELVAGISGSVGSTHYADSVKGRFSISRDNAKNTVYLQMNSLKPEDTAVYYCAARALTWSRVPRYNYWGQGTQVTVSS | high polyreactivity |
| QVQLVESWGGLVQAGGSLRLSCAASGFTFYGYAMGWYRQAPGKERELVAAISRRSSSTYYADSVKGRFTISRDNAKNTVYLQMNSLKPEDTAVYYCNTVFQLSGYAAGVDYWGQGTQVTVSS | high polyreactivity |
| QVQLVESGGGLVQAGGSLRLSCAASGSIFNYTMGWYRQGPAQERQLVAVISRSGGRTYYADSVKGRFTISRDNAKNTVYLQMNSLKPEDTAVYYCATDGHNGYYGRYDYWGHGTQVTVSS | high polyreactivity |
| QVQLVESGGGLVQAGGSLRLSCAASGSTFDRYTLGWYRQAPGKERELVAGISNSGGSTYYADSVKGRFTISRDNAKNTVYLQMNSLKPEDTAVYYCAAAYSIRRILYYYWGQGTHVTVSS | high polyreactivity |
| QVQLVESGGGLVQAGGSLRLSCAATARIFVRYAMGWYRQAPGKERELVAAISTSGGRTYYADSVKGRFTISRDNAKNTVYLQMNSLKPEDTAVYYCNARIKRPRGVYGGDYWGQGTQVTVSS | high polyreactivity |
| QVQLVESGGGLVQAGGSLRLICAASGFIFDTYTMGWYRQAPGKERELVAAISRSGASTYYADSVKGRFTISRDNAKNTVYLQMNSLKPEDTAVYYCATVYYPSYRGGYDYWGQGTQVTVSS | high polyreactivity |
| QVQLEESGGGLVQAGGSLRLSCAASGGILVFYALGWYRQAPGTERELVAAINVSGRSTYYADSVKGRFTISRDNAKNTVYVQMNSLKPEDTAVYYCAADYYYVWYDYWGQGTQVTVSS | low polyreactivity |
| QVQLVESGGGLVQAGGSLRLSCAASGSTLFDYTMGWYRQAPGNVRELVAAISSSGITDYADSVKGRFTISRDNAQNTVYLQMNSLKPDETAVYYCNARSQKATRYDYWGQGTQVTVSS | high polyreactivity |
| LVHLQESGGGLVQAGGSLRLSCAASGTISPAGYMGWYRPAPGKERELVASINVGGSTNYADSVKGRFTISRDNAKNTVYLQLNCLKPEVNAVYYCAVWGRYRLQLSYWGQGTQVTVSS | low polyreactivity |
| QVQLVESGGGLVQAGGSLSLSCAASGSTFVVNAMGWYRQAPGKERELVAAITQSGGSTFYADSVKGRFPISRDNAKNTVYLQMNSLKPEDTAVYYWGQGTQVTVSS | low polyreactivity |
| QVQLVESGGGLVQAGGSLRLSCAASGFTFGVYAMGWYRQAPGKERELVAAITATGGSTYYADSVKGRFTISRDNAKNTVYLQMNSLKPEDTAVYYCAADLDGTLSVYDYHTTGDDYWGQGTQVTVSS | low polyreactivity |
| QVQLVESGGGLVQAGGSLRLSCAASGSIFPYYVMGWYRQAPGKERELVAAISWSGASTYYADSVKGRFTISRDNAKNTVYLQMNSLKPEDTAVYYCAKYSSHFENDYWGQGTQVTVSS | low polyreactivity |
| QVQLVETGGGLVQAGGSLSLSCAGSGHTFTNNAMGWYRQAPGKERELVAAITFSGGRTYYADSVKGRFTISRDNAKNTVYLQKNSLKPEDTAVYYCDAVNPGGSIYDYWGQGTQVTVSS | low polyreactivity |
| QVQLVESGGGLVQAGGSLRLSCAASGNTFGYNAMGWYRQAPGKERELVASITWSGGSTYYADSVKGRFTISRDNAKNTVYLEMKSLKPEDTAVYYCNADVRYGRDHWGQGTQVTVSS | low polyreactivity |
| QVQLVESGGGLVQAGGSLRLSCAASGIIFRVNTIGWDRQAPGKEREMVARITGAGNTYYADSVNGRCTISRDNAKNSVYLQMNSLKPKDTAVYYCAVREFDKRRVIYYYWGQGTQVTVLS | high polyreactivity |
| QVQLVESGGGLVQAGGSLRLSCAASGSIFNTYAMGWYRQAPGKERELVAAITWSGGSTYYADSVKGRFTISRDNAKNTVYLQMNSLKPEDTAVYYCAARQRRQSYWGQGTQVTVSS | high polyreactivity |
| QGQLVESGGGLVQAGGSLRLSCAASGITFPYYAMGWYRQAPGKERELVADITSGGSTNYADSVKGRFTISRDNAKNTVYLQMNSLKPDDTAVYYCAADWYVIYDYWGQGTQVTVSS | low polyreactivity |
| QVQLVESGGGLVQAGGSLRLSCAASGRTFNPNAMGWYRQAPGKERELVATISWSSDSTYYADSVKGRFTISRDNAKNTVYLQMNSLKPEDTAVYYCNAQLSYHWYSPGYDYWGQGTQVTVSS | low polyreactivity |
| QVQLVESGGGLVQAGGSLRLSCAASGFIFYYYAMGWYRQAPGKERELVAAITSSGGSTYYADSVKGRFTISRDNAKNTVYLQKNSLKPEDTAVYYCAAYYHGRMDYWGQGTQVTVSS | high polyreactivity |
| QVQLVESGGGLVQAGGSLRLSCAASGYTLDNYAMGWYRQAPGKERELVAGITFSGGSTFYADSVKGRFTISRDNAKNTVYLQMNSLKPEDTAVYYCAADAEFQADHKYGYWGQGTQVTVSS | low polyreactivity |
| QVQLVESGGGLVQAGGSLRLSCAASGITFYDNVMGWYRQAAGKERELVAAITSGGSTNYADSVKGRFTISRDNAKNTVYLQMNSLKPEDTAVYYCAAQPRVDYEFPYRYGYWGQGTQVTVSS | low polyreactivity |
| QVQLVESGGGLVQAGGSLRLSCAASGFTFNKNPMGWYRQAPGKEREMVAAITSSGGSTYYADSVQGRFTISRDNAKNTVYLQMNSLKPEDTAVYYCAAYPQAFMADYEYWGQGTQVTVSS | low polyreactivity |

| Sequence | polyreactivity (PSR sort gate) |
| --- | --- |
| QVQLVESGGGLVKAGGSLRLSCAASGSTNDRYAMGLYRQAPGKEREFVAAITKRGGSTYYADSVKGRFTISRDNAKITVYLQMNSLKPEDTAVYYCGARYGRGSAYTEYEYWGQGTQVTVSS | high polyreactivity |
| QVQLVESGGGLVPAGGSLRLSCAASGSTFVRYVMGWYRQAPGKERELVAAISRRGGSTYYADSVKGRCTISRDIAKNTVYLQMNSLKPEDTAVYYCADSRGTRTTGYSSYDRFGYWGQGTQVTVSS | high polyreactivity |
| QVQLVESGGGLVQAGGSLRLRCAASGRTFGGNAMGWYRQAPGKERELVAAISFSGGSTYYADSVKGRFTISRDNAKNTVYLQMNSLKPEDTAVYYCAARYYWSVYADQGDYWGQGTQVTVSS | low polyreactivity |
| QVQLVESGGGLVQAGGSLRLSCAASGSTFSFNDMGGYRPAPGKERELVADISWSGDTTYADSVKGRFTISRDNAKNTVYLQMNSLIPEDSAVYYCNAEGFSISFYGNWVVQWEFDYWGQGTQVTVSS | high polyreactivity |
| QVQLVESGGGLVQAGGSLRLSCAASGSIFRYNAMGWYRQAPGKERELVAAISSGGSTKYADSVKGRFTISRDNAKKTVYLQMNSLKPEDTAVYYCVARRARYDYWGQGTQVTVSS | high polyreactivity |
| QVQLVESGGGLVQAGGSLRLSCAASGGIFRYYAMGWYRQAPGKERELVAAITSSGTSTYYADSVKGRFTISRDNAKNTVYLQMNSLKPEDTAVYYCAATRTKRKFDYWGQGTQVTVSS | high polyreactivity |
| QVQLVESGGGLVQAGGSLRLSCAASGSIFTYYVMGWYRQAPGKERELVAVISRRGGRTYYADSVKGRFTISRDNAKNTVYLQMNSLKPEDTAVYYCATTYKTRYGGRYRYYYWGQGTQVTVSS | high polyreactivity |
| KVQLVESGGGLVQAGGSLRLSCAHSGYIFGYYAMGCYRQAPGKERELVAAISSGGNTNYADSVKGRYTISRDNAKTTVYLQMNSLKPEDTAVNYCATRDRYKRIRYDYWGQGTQVTVSS | high polyreactivity |
| QVQLVESGGGLVQAAGSLRLSCAASGRTFHWYVMGWYRQAPGKESELDAAITRRGGSTYYADSVKGRFTISRDNAKNTVYLQLNSLKPEDTAVYYCAAVGNRRYYFGYDYWGQGTQVTVSS | high polyreactivity |
| QGQLVESGGGLVQAGGSLRISCAASGRIYRINAMGWYRQAPGKERELVANITSGGGSTYADSVKGRFTISRDNAKNTVYLQMNSRKPEDTAVYYCAARSRIGRYTYDYWGQGTQVTVSS | high polyreactivity |
| QVQLEESGGGLVQAGGSLRLSCAASGFTSYYAMGWYRQAPGKERELVAAIRYSTVSTYYADAVKGRFTISRDNAKNTVYLQMNIMKPEDTAVYYCAAQRRPYLPGHYYYWGQGTQVTVSS | high polyreactivity |
| QVQLVESGGGLVQAGGSLRLSCAASGSIFSSYAMGWYRQAPGKERELVAAISSGDSTYYADSVKGRFTISRDNAKNTVYLQMNSLKPEDTAVYYCAAPWYAWGQGTQVTVSS | low polyreactivity |
| QVQLVESGGGLVQAGGSLRLSCAASGSIFYPYAMGWYRQAPGKERELVAAISSGGTTYYADSVKGRFTISRDNAKNTVYLQMNSLKPEDTAVYYCAAGFYLRAVWMDYWGQGTQVTVSS | high polyreactivity |
| QDQLEESGGGLVQAGGSLRLSCASSGRIFAGYAMGWYRQAPGKERELVAAISGSGGSTYYADSVKGRFTISRDNAKNTVYLQMNSLKPEDTAVFYCNAGKTSRFQYDYWGQGTQVTVSS | high polyreactivity |
| QVQLVESGGGLVQAGGSLRLSCAASGFTLANYAMGWYRQAPGKERELVAAISSSTGGTYYADSVKGRFTISRDNAKNTVYLQMNSLKPEDTAVYYCAAEYYFHKYVRMYYWGQGTQVTVSS | high polyreactivity |
| QVQLVESGGGLVQAGGSLRLSCASSGRTFALYAMGWYRKAPGKERELVAGITFRGGSTYYADSVKGRFTISRDNAKKTVYLQMISQKPEDNAVYYCAAERWRWYYSWNMDYWGQCTQVTVSS | high polyreactivity |
| QVQLVESGGGLVQAGCRLRLSCAASGLIFGYYHMGWYRQAPGKERELVAAITTGDSTYYADSVKGRFTISRDNAKNTVYLQMNSLKPEDTAVYYCAAYPVWYYEYDYWGQGTQVTVSS | low polyreactivity |
| QVQLVESGGGLVQAGGSLRLSCAASGSIFYLYAMGWYRQAPGKERELVATISLSSGSTYAASVKGRFTISRDNAKNTVYLQMNSLKPEDTAVDYCAKDLTRWGYNEYDYWGQGTQVSVSS | low polyreactivity |
| QVQLVESGGGLVQAGGSLRLSCAASGNILLFNAMGWYRQAPGKERELVATINQSGGRTYYADSVKGRFTISRDNAKNTVYLQMNSLKPEDTAVYYCNAPGSPVVQQPGYYWGQGTQVTVSS | low polyreactivity |
| QVQLVESGGGLVQAGGSLRISCDASGSTFKLYPMGWYRQAPGKEREFVAAISRSGGSTNYADSVNGRFTISRDNAKNTVYLQMNSLKPEDTAVYYCAARYPGNYDYWGQGTQVTVSS | high polyreactivity |
| QVQLVESCGGLVQAGGSIRLRCAATGSIIYVNPMGWYRQAPWKEREMVAAITGGASTNYADSVKGRFTISRDNAKNTVYLQMNLLKPEDTAVYYCAVDPVGHATRVWTYQYDYWGQGNQVTVSS | low polyreactivity |
